This assay deals with T1, recombinant glycoprotein 96 (GP96) (human, UniProt P14625 22-803).
T1 construct: The purification of GP96 and the fate of the GST tag are not described; also called GRP94; Grp94; source: E. coli BL21(DE3), pGEX-6P-1 vector; recombinant protein
Description: SPR; BIAcore X-100; GP96 amine-coupled to a CM5 chip; AliA or AliB as analyte at 31.3-500 nM; HBS-P buffer (0.01 M HEPES pH 7.4, 0.15 M NaCl, 0.005% surfactant P20), 37°C, 30 ul/min; 1:1 Langmuir binding model. As to conditions: both partners purified. A general note: In SPR one partner is held on a chip, and binding of the other changes the refractive index at the surface.

By Kd is commonly meant the constant that tells how readily two partners part at equilibrium. The term koff denotes a measure of how fast the partners let go of each other. As a reminder, the kon is the second-order rate constant of association.

T1 sequence (P14625 22-803): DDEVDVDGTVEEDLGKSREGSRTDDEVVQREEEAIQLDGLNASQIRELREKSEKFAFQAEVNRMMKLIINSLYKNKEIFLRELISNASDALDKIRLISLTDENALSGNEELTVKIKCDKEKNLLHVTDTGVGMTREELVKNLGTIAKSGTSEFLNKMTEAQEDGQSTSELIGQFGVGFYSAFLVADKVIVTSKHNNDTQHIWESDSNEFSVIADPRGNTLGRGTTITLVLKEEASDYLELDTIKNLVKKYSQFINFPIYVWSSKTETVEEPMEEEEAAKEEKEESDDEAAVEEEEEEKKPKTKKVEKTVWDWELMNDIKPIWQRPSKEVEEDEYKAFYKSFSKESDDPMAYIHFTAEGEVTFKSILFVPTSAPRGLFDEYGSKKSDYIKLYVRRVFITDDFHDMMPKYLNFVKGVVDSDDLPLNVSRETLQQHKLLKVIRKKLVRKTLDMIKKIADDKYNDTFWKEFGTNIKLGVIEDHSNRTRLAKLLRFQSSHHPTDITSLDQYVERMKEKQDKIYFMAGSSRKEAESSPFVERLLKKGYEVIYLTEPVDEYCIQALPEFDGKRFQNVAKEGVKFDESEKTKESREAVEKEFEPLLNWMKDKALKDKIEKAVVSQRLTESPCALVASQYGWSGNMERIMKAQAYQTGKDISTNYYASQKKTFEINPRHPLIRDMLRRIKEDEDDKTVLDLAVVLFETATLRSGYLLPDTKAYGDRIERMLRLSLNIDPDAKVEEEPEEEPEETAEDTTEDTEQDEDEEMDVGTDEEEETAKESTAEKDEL

B1: recombinant AliA (natural protein)
chain: CSGSGSSTKGEKTFSYIYETDPDNLNYLTTAKAATANITSNVVDGLLENDRYGNFVPSMAEDWSVSKDGLTYTYTIRKDAKWYTSEGEEYAAVKAQDFVTGLKYAADKKSDALYLVQESIKGLDAYVKGEIKDFSQVGIKALDEQTVQYTLNKPESFWNSKTTMGVLAPVNEEFLNSKGDDFAKATDPSSLLYNGPYLLKSIVTKSSVEFAKNPNYWDKDNVHVDKVKLSFWDGQDTSKPAENFKDGSLTAARLYPTSASFAELEKSMKDNIVYTQQDSITYLVGTNIDRQSYKYTSKTSDEQKASTKKALLNKDFRQAIAFGFDRTAYASQLNGQTGASKILRNLFVPPTFVQADGKNFGDMVKEKLVTYGDEWKDVNLADSQDGLYNPEKAKAEFAKAKSALQAEGVQFPIHLDMPVDQTATTKVQRVQSMKQSLEATLGADNVIIDIQQLQKDEVNNITYFAENAAGEDWDLSDNVGWGPDFADPSTYLDIIKPSVGESTKTYLGFDSGEDNVAAKKVGLYDYEKLVTEAGDETTDVAKRYDKYAAAQAWLTDSALIIPTTSRTGRPILSKMVPFTIPFALSGNKGTSEPVLYKYLELQDKAVTVDEYQKAQEKWMKEKEESNKKAQEDLAKHVK
notes: also called Ali protein; source: E. coli XL10-Gold, pQE30 vector, purified (QIAexpress protein purification system)
For B1, the Kd was found to be 34 nM, the koff was determined as 0.000785 s⁻¹ and the association rate constant (kon) was 23100 M⁻¹ s⁻¹.

B2: recombinant AliB (natural protein)
chain: CGNSSTASKTYNYVYSSDPSSLNYLAENRAATSDIVANLVDGLLENDQYGNIIPSLAEDWTVSQDGLTYTYKLRKDAKWFTSEGEEYAPVTAQDFVTGLQYAADKKSEALYLVQDSVAGLDDYITGKTSDFSTVGVKALDDQTVQYTLVKPELYWNSKTLATILFPVNADFLKSKGDDFGKADPSSILYNGPFLMKALVSKSAIEYKKNPNYWDAKNVFVDDVKLTYYDGSDQESLERNFTAGAYTTARLFPNSSSYEGIKEKYKNNIIYSMQNSTSYFFNFNLDRKSYNYTSKTSDIEKKSTQEAVLNKNFRQAINFAFDRTSYGAQSEGKEGATKILRNLVVPPNFVSIKGKDFGEVVASKMVNYGKEWQGINFADGQDPYYNPEKAKAKFAEAKKELEAKGVQFPIHLDKTVEVTDKVGIQGVSSIKQSIESVLGSDNVVIDIQQLTSDEFDSSGYFAQTAAQKDYDLYHGGWGPDYQDPSTYLDIFNTNSGGFLQNLGLEPGEANDKAKAVGLDVYTQMLEEANKEQDPAKRYEKYADIQAWLIDSSLVLPSVSRGGTPSLRRTVPFAAAYGLTGTKGVESYKYLKVQDKIVTTDEYAKAREKWLKEKEESNKKAQEELAKHVK
notes: as for B1
In the case of B2, the dissociation constant Kd came out at 48.5 nM, the koff stood at 10.1 s⁻¹ and the kon is 2.09e+08 M⁻¹ s⁻¹.

These data come from paper PMC8262878, “GP96 Drives Exacerbation of Secondary Bacterial Pneumonia following Influenza A Virus Infection” (mBio, 2021).
